The source of these data is publication PMC10570377, “DARPins detect the formation of hetero-tetramers of p63 and p73 in epithelial tissues and in squamous cell carcinoma” (Cell Death & Disease, 2023).

The labels stand for the following.
B1: p63 oligomerization domain (OD), homo-tetramer (domain or fragment)
chain: DDELLYLPVRGRETYEMLLKIKESLELMQYLPQHTIETYRQQQQQQHQHLLQKQTSIQS
notes: p63 oligomerization domain (OD), wild type; also called p63 OD; p63 homo-OD; source: E. coli, purified; not shown: His10, N-terminal, cleaved

Series [1] concerns the molecule itself. Briefly: crystal structure; complexes of OD hetero-tetramer and DARPin mixed 1:2, isolated by SEC, sitting drop at 20 °C. A general note: SEC sorts molecules by how far they enter the pores of the column.
Series [2] has as its target B1. In words: NMR titration; [15N,1H] BEST-TROSY spectra at 25 °C; equimolar mixture of unlabelled p63 OD and 15N-Lys-labelled p73 OD, DARPin added at one ratio (2.4:1); 20 mM K2HPO4 pH 7.8, 100 mM KCl, 0.5 mM EDTA. Particulars: both partners purified.

Regarding B1, the binding result in series [1] is recorded as “binds”.

B2: p73 oligomerization domain (OD), homo-tetramer (domain or fragment)
chain: DEDTYYLQVRGRENFEILMKLKESLELMELVPQPLVDSYRQQQQLLQR
notes: p73 oligomerization domain (OD), wild type; 15N-labelled on lysine for NMR; also called p73 OD; p73 homo-OD; source: E. coli, purified; not shown: His10, N-terminal, cleaved
B2: the binding result in series [1] and in series [2] was “binds” in each case.

B3: p73 oligomerization domain E363K (domain or fragment, UniProt O15350 351-398, looked up)
chain: DEDTYYLQVRGRKNFEILMKLKESLELMELVPQPLVDSYRQQQQLLQR
notes: p73 oligomerization domain (OD), amino acids 351-398, E363K; The p73 chain of m3; also called p73 (amino acids 351–398, E363K); p73 OD E363K; source: E. coli BL21(DE3) Rosetta, purified; not shown: His10, N-terminal, cleaved
For the molecule B3, the binding result in series [1] is “binds”.
